From paper PMC12137749 (Nature Communications, 2025)
Read-outs that look alike come from different tables or passages of the source.

Key:
cryo-EM structure = target: the molecule itself; assay: cryo-EM structure
[1] = target: the molecule itself

B1: full-length MPXV E5 (mpox virus helicase-primase E5), wild type (enzyme)
chain: MDAAIRGNDVIFVLKTIGVPSACRQNEDPRFVEAFKCDELERYIDNNPECTLFESLRDEEAYSIVRIFMDVDLDACLDEIDYLTAIQDFIIEVSNCVARFAFTECGAIHENVIKSMRSNFSLTKSTNRDKTSFHIIFLDTYTTMDTLIAMKRTLLELSRSSENPLTRSIDTAVYRRKTTLRVVGTRKNPNCDTIHVMQPPHDNIEDYLFTYVDMNNNSYYFSLQRRLEDLVPDKLWEPGFISFEDAIKRVSKIFINSIINFNDLDENNFTTVPLVIDYVTPCALCKKRSHKHPHQLSLENGAIRIYKTGNPHSCKVKIVPLDGNKLFNIAQRILDTNSVLLTERGDHIVWINNSWKFNSEEPLITKLILSIRHQLPKEYSSELLCPRKRKTVEANIRDMLVDSVETDTYPDKLPFKNGVLDLVDGMFYSGDDAKKYTCTVSTGFKFDDTKFVEDSPEMEELMNIINDIQPLTDENKKNRELYEKTLSSCLCGATKGCLTFFFGETATGKSTTKRLLKSAIGDLFVETGQTILTDVLDKGPNPFIANMHLKRSVFCSELPDFACSGSKKIRSDNIKKLTEPCVIGRPCFSNKINNRNHATIIIDTNYKPVFDRIDNALMRRIAVVRFRTHFSQPSGREAAENNDAYDKVKLLDEGLDGKIQNNRYRFAFLYLLVKWYKKYHIPIMKLYPTPEEIPDFAFYLKIGTLLVSSSVKHIPLMTDLSKKGYILYDNVVTLPLTTFQQKISKYFNSRLFGHDIESFINRHKKFANVSDEYLQYIFIEDISSP
In the case of B1, the “stoichiometry N” value (cryo-EM structure) is reported as 12 and the “stoichiometry N” value [1] is reported as 6.
